Measurements from the supplement of paper PMC11246515.
± gives the standard deviation of the averaged measurements.

Assay: total protein half-life in vivo (active degradation + dilution); higher = more stable protein
[1] = E. coli NCM3722 delta-clpP delta-lon delta-hslV, growth: N-lim chemostat, doubling time 6 h
[2] = E. coli NCM3722 delta-clpP, growth: N-lim chemostat, doubling time 6 h
[3] = E. coli NCM3722 delta-hslV, growth: N-lim chemostat, doubling time 6 h
[4] = E. coli NCM3722 delta-lon, growth: N-lim chemostat, doubling time 6 h
[5] = E. coli NCM3722 delta-smpB, growth: N-lim chemostat, doubling time 6 h
[6] = wild type E. coli NCM3722, growth: C-lim chemostat, doubling time 3 h
[7] = wild type E. coli NCM3722, growth: C-lim chemostat, doubling time 6 h
[8] = wild type E. coli NCM3722, growth: C-lim chemostat, doubling time 12 h
[9] = wild type E. coli NCM3722, growth: N-lim chemostat, doubling time 6 h
[10] = wild type E. coli NCM3722, growth: N-lim chemostat, doubling time 12 h
[11] = wild type E. coli NCM3722, growth: P-lim chemostat, doubling time 6 h
[12] = wild type E. coli NCM3722, growth: P-lim chemostat, doubling time 12 h

Sequence	total protein half-life in vivo [1]	total protein half-life in vivo [2]	total protein half-life in vivo [3]	total protein half-life in vivo [4]	total protein half-life in vivo [5]	total protein half-life in vivo [6]	total protein half-life in vivo [7]	total protein half-life in vivo [8]	total protein half-life in vivo [9]	total protein half-life in vivo [10]	total protein half-life in vivo [11]	total protein half-life in vivo [12]
MTLKELLVGFGTQVRSIWMIGLHAFAKRETRMYPEEPVYLPPRYRGRIVLTRDPDGEERCVACNLCAVACPVGCISLQKAETKDGRWYPEFFRINFSRCIFCGLCEEACPTTAIQLTPDFEMGEYKRQDLVYEKEDLLISGPGKYPEYNFYRMAGMAIDGKDKGEAENEAKPIDVKSLLP [P0AFD6]	6.29 ± 0.46 h	7.36 ± 0.22 h	6.38 ± 0.14 h	7.21 ± 0.13 h	6.351 ± 0.056 h	3.32 ± 0.17 h	6.25 ± 0.18 h	12 ± 1.3 h	5.99 ± 1.2 h	15.2 ± 0.83 h	6 ± 0.08 h	13.6 ± 2.2 h
MTITDLVLILFIAALLAFAIYDQFIMPRRNGPTLLAIPLLRRGRIDSVIFVGLIVILIYNNVTNHGALITTWLLSALALMGFYIFWIRVPKIIFKQKGFFFANVWIEYSRIKAMNLSEDGVLVMQLEQRRLLIRVRNIDDLEKIYKLLVSTQ	7.14 h	7.25 h	6.58 h		6.13 ± 0.82 h	2.77 ± 0.15 h	4.79 h		5.6 h	8.94 h		
MWIGIISLFPEMFRAITDYGVTGRAVKNGLLSIQSWSPRDFTHDRHRTVDDRPYGGGPGMLMMVQPLRDAIHAAKAAAGEGAKVIYLSPQGRKLDQAGVSELATNQKLILVCGRYEGIDERVIQTEIDEEWSIGDYVLSGGELPAMTLIDSVSRFIPGVLGHEASATEDSFAEGLLDCPHYTRPEVLEGMEVPPVLLSGNHAEIRRWRLKQSLGRTWLRRPELLENLALTEEQARLLAEFKTEHAQQQHKHDGMA [P0A873]	4.44 ± 1.1 h	4.01 ± 0.084 h	4.21 ± 0.043 h	4.7 ± 0.54 h	4.21 ± 0.33 h	3.04 ± 0.49 h	5.88 ± 0.59 h	8.46 ± 1.3 h	4.25 ± 0.34 h	7.45 ± 0.68 h	5.85 ± 0.19 h	10.4 ± 0.29 h
MDNRGEFLNNVAQALGRPLRLEPQAEDAPLNNYANERLTQLNQQQRCDAFIQFASDVMLTRCELTSEAKAAEAAIRLCKELGDQSVVISGDTRLEELGISERLQQECNAVVWDPAKGAENISQAEQAKVGVVYAEYGLTESGGVVLFSAAERGRSLSLLPEYSLFILRKSTILPRVAQLAEKLHQKAQAGERMPSCINIISGPSSTADIELIKVVGVHGPVKAVYLIIEDC	4.84 ± 0.23 h	1.46 h	1.64 h	2.67 h	1.78 ± 0.043 h	2.33 ± 0.14 h	3.75 ± 0.5 h	5.23 ± 0.45 h		2.49 h	2.13 h	
MTDKMQSLALAPVGNLDSYIRAANAWPMLSADEERALAEKLHYHGDLEAAKTLILSHLRFVVHIARNYAGYGLPQADLIQEGNIGLMKAVRRFNPEVGVRLVSFAVHWIKAEIHEYVLRNWRIVKVATTKAQRKLFFNLRKTKQRLGWFNQDEVEMVARELGVTSKDVREMESRMAAQDMTFDLSSDDDSDSQPMAPVLYLQDKSSNFADGIEDDNWEEQAANRLTDAMQGLDERSQDIIRARWLDEDNKSTLQELADRYGVSAERVRQLEKNAMKKLRAAIEA [P0AGB3]	0.775 ± 0.044 h											0.858 h
MSALFLAIPLTIFVLFVLPIWLWLHYSNRSGRSELSQSEQQRLAQLADEAKRMRERIQALESILDAEHPNWRDR [P0AFM9]	6.51 ± 0.1 h	6.06 h	6.22 ± 0.43 h	5.01 ± 1.7 h	6.04 ± 0.43 h	2.84 ± 0.24 h	5.55 ± 1.4 h	13.4 ± 2.2 h	6.02 ± 0.28 h		4.5 ± 1.6 h	12.1 ± 0.9 h
MKKQTQLLSALALSVGLTLSASFQAVASIPGQVADQAPLPSLAPMLEKVLPAVVSVRVEGTASQGQKIPEEFKKFFGDDLPDQPAQPFEGLGSGVIINASKGYVLTNNHVINQAQKISIQLNDGREFDAKLIGSDDQSDIALLQIQNPSKLTQIAIADSDKLRVGDFAVAVGNPFGLGQTATSGIVSALGRSGLNLEGLENFIQTDASINRGNSGGALLNLNGELIGINTAILAPGGGSVGIGFAIPSNMARTLAQQLIDFGEIKRGLLGIKGTEMSADIAKAFNLDVQRGAFVSEVLPGSGSAKAGVKAGDIITSLNGKPLNSFAELRSRIATTEPGTKVKLGLLRNGKPLEVEVTLDTSTSSSASAEMITPALEGATLSDGQLKDGGKGIKIDEVVKGSPAAQAGLQKDDVIIGVNRDRVNSIAEMRKVLAAKPAIIALQIVRGNESIYLLMR	6.2 ± 0.32 h		6.47 ± 0.17 h	6.3328 ± 0.0043 h	5.56 ± 0.2 h	3.05 ± 0.14 h	6.305 ± 0.0077 h	10 ± 0.31 h	6.06 ± 0.2 h	11.7 ± 0.17 h	5.48 ± 0.15 h	10.6 ± 0.71 h
MQRARCYLIGETAVVLELEPPVTLASQKRIWRLAQRLVDMPNVVEAIPGMNNITVILRNPESLALDAIERLQRWWEESEALEPESRFIEIPVVYGGAGGPDLAVVAAHCGLSEKQVVELHSSVEYVVWFLGFQPGFPYLGSLPEQLHTPRRAEPRLLVPAGSVGIGGPQTGVYPLATPGGWQLIGHTSLSLFDPARDEPILLRPGDSVRFVPQKEGVC [P0AAV4]	5.48 ± 0.23 h	5.44 ± 0.087 h	5.73 ± 0.79 h	7.2 ± 0.64 h	4.972 ± 0.042 h	3.51 ± 0.27 h	6.26 ± 0.1 h	11.3 ± 0.43 h	5.41 ± 0.97 h	11.3 ± 0.39 h	6.04 ± 0.51 h	
MNEFSILCRVLGSLYYRQPQDPLLVPLFTLIREGKLAANWPLEQDELLTRLQKSCDMTQVSADYNALFIGDECAVPPYRSAWVEGATEAEVRAFLSERGMPLADTPADHIGTLLLAASWLEDQSTEDESEALETLFSEYLLPWCGAFLGKVEAHATTPFWRTMAPLTRDAISAMWDELEEDSEE	5.33 ± 0.97 h	5.83 ± 1.6 h	5.14 ± 0.17 h	5.97 ± 1.5 h	5.24 ± 0.65 h	3.342 ± 0.021 h	6.25 ± 0.39 h		4.99 ± 0.71 h	9.91 ± 0.97 h		
